Substrate: CCn1c(=NN=c2sc3cc(S(=O)(=O)O)ccc3n2CC)sc2cc(S(=O)(=O)O)ccc21
Assay: purified protein
Type: biochemical, Pleurotus ostreatus
Details: free soluble enzyme, 0.1 M sodium citrate pH 3.0, 25°C (general assay)

B1: POXC (Pleurotus ostreatus) (protein)
chain: AIGPAGNMYIVNEDVSPDGFARSAVVARSVPATDPTPATASIPGVLVQGNKGDNFQLNVVNQLSDTTMLKTTSIHWHGFFQAGSSWADGPAFVTQCPVASGDSFLYNFNVPDQAGTFWYHSHLSTQYCDGLRGPFVVYDPSDPHLSLYDIDNADTVITLEDWYHIVAPQNAAIPTPDSTLINGKGRYAGGPTSPLAIINVESNKRYRFRLVSMSCDPNFTFSIDGHSLLVIEADAVNIVPITVDSIQIFAGQRYSFVLTANQAVDNYWIRANPNLGSTGFVGGINSAILRYAGATEDDPTTTSSTSTPLLETNLVPLENPGAPGPPVPGGADININLAMAFDFTTFELTINGVPFLPPTAPVLLQILSGASTAASLLPSGSIYELEANKVVEISMPALAVGGPHPFHLHGHTFDVIRSAGSTTYNFDTPARRDVVNTGTGANDNVTIRFVTDNPGPWFLHCHIDWHLEIGLAVVFAEDVTSISAPPAAWDDLCPIYNALSDNDKGGIVPS
notes: native purified laccase isoenzyme from P. ostreatus; soluble form
- Km: 30 µM
- kcat: 10300 s⁻¹
